Measurements: patent US20220177560A1 (Janssen / Centocor, published 2022)

Legend:
[1] = target: Aβ3pE-42 (pyroglutamate (pE) at the N-terminus, residue 3 of Aβ); assay: sandwich ELISA, BAMB31_1 coated, HRPO-labeled C-terminal antibody for detection
[2] = target: human Aβ1-40 peptide (human); assay: sandwich ELISA, BAMB31_1 coated, JRF/cAβ40/28-HRPO detection
[3] = target: T1, rodent Aβ3pE-40 (rodent, pyroglutamate (pE) at the N-terminus, residue 3 of Aβ); assay: as above
T1 peptide: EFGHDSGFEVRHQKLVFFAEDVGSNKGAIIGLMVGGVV

[4] = target: T2, human AβpE11-40 (human, pyroglutamate (pE) at the N-terminus, residue 11 of Aβ); assay: as above
T2 construct: also called Aβ11pE-40
T2 peptide: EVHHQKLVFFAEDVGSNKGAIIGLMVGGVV

[5] = target: human Aβ1-42 (human); assay: sandwich ELISA, BAMB31_1 coated, JRF/cAβ42/26-HRPO detection
[6] = target: T3, AβpE11-42 (human, pyroglutamate (pE) at the N-terminus, residue 11 of Aβ); assay: as above
T3 construct: also called Aβ11pE-42
T3 peptide: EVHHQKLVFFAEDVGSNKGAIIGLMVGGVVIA

B1: BAMB31_1 (antibody, mouse IgG1, V domains shown)
VH: EIQLQQSGPELVKPGTSVKVSCKASGHVFTSYDMYWVKQSHGKSLEWIGYIDSDNGDTSYNQKFKGKATLTVDKSSSTAYMHLNSLTSEDSAVYYCAYYRYAMDYWGQGTSVTVSS
VL: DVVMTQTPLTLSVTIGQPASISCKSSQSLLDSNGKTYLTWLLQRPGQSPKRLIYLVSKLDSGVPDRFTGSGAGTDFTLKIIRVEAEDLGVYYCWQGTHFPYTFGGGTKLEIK
notes: Hybridoma antibody
B1: binds [1]; no binding (tested: 10 ng/mL) [2]; no binding (tested: 10 ng/mL) [3]. B1: no binding (tested: 10 ng/mL) [4]; no binding (tested: 10 ng/mL) [5]; no binding (tested: 10 ng/mL) [6].
